Data taken from US20040253677.

Test system: HA-GβL

myc-mTOR (full-length)
in vitro mTOR kinase activity (autophosphorylation and activity towards GST-S6K1): GβL-mediated stimulation of the mTOR kinase activity correlates with the amount of GβL bound to mTOR and is independent of raptor
